Literature values in patent US5916869A, “Method of treating birds in ovo” (North Carolina State University, priority 1997, dated 1999).

Tested on: sodium-dependent duodenal active transport
Details: sheep, injected

B1: recombinant bovine growth hormone (protein, UniProt P01246 27-217, looked up)
Somatotropin: AFPAMSLSGLFANAVLRAQHLHQLAADTFKEFERTYIPEGQRYSIQNTQVAFCFSETIPAPTGKNEAQQKSDLELLRISLLLIQSWLGPLQFLSRVFTNSLVFGTSDRVYEKLKDLEEGILALMRELEDGTPRAGQILKQTYDKFDTNMRSDDALLKNYGLLSCFRKDLHKTETYLRVMKCRRFGEASCAF
notes: recombinant bovine growth hormone injected into sheep in a cited study
In the case of B1, the “increase of sodium-dependent duodenal active transport of glucose” value is given as “approximately 60%” and the “increase of transport of proline” value is given as “approximately 30%”.
